The results in this text go back to patent US20240024851A1.

For assay [1], the target named is adeno-associated virus type 2 (AAV2) particles (adeno-associated virus type 2) (UniProt P03135). Put plainly: affinity column (beads), AAV2 pre-treatment liquid, 0.2 mL/min, qPCR.
The target is the same in assay [2]. Put plainly: affinity column (beads), AAV2 crude liquid, retention time 5 sec, qPCR.
For assay [3] the target is unchanged. Put plainly: affinity column (beads), AAV2 crude liquid, retention time 10 sec, qPCR.
The target is the same in assay [4]. As to the kind of experiment: affinity column (beads), AAV2 crude liquid, 0.2 mL/min, qPCR.
Assay [5] addresses adeno-associated virus type 1 (AAV1) particles (adeno-associated virus type 1). Put plainly: batch adsorption of AAV1 pre-treatment liquid to discs (ligand on nonwoven fabric 1), acid elution, qPCR. On the technique in general: Quantitative PCR measures a nucleic acid by following its amplification.

As for “POROS CaptureSelect AAVX (ligand of the commercial affinity resin, Thermo Scientific) (VHH)”, in assay [1], the ratio of residual AAV to recovered AAV worked out at 48.8%, the recovered AAV in elution step amounted to 5.75e+11 vg and the residual AAV in washing step is 2.8e+11 vg. For the same molecule, in assay [2], the leaked AAV to FT turned out to be 1.38e+11 vg, the ratio of leaked AAV to recovered AAV came out at 19%, the ratio of residual AAV to recovered AAV stood at 22% and the recovered AAV in elution step was 7.42e+11 vg. In assay [2], this molecule displayed a residual AAV in washing step of 1.67e+11 vg. In assay [3], the leaked AAV to FT was 4.19e+10 vg, the ratio of leaked AAV to recovered AAV was determined as 5%, the ratio of residual AAV to recovered AAV came to 17% and the recovered AAV in elution step worked out at 8.66e+11 vg. In assay [3], this molecule displayed a residual AAV in washing step of 1.47e+11 vg. In assay [4], the leaked AAV to FT turned out to be 5.97e+09 vg, the ratio of leaked AAV to recovered AAV amounted to 1%, the ratio of residual AAV to recovered AAV was 17% and the recovered AAV in elution step came to 8.77e+11 vg. In assay [4], this molecule returned a residual AAV in washing step of 1.49e+11 vg.

B1: anti-AAV-VHH antibody VHH1 (VHH)
VHH: QVQLVESGGGLVQAGGSLRLSCAASGRTFSSYAMGWFRQAPGKEREIVASISWNGGSTDYADSVKGRFTISRDNAKNTVYLQMNSLKPEDTAVYYCAADSTNWVFYDYWGQGTQVTVSS
Regarding B1, in assay [5], the amount of the AAV1 adsorbed worked out at 1.1e+13 vg/mL-column.
